From patent publication US20220372112A1 (KEYMED BIOSCIENCES, published 2022)
Positions count from the first letter of the chain named.

T1: human Claudin 18.2 (human, UniProt P56856-2 1-261)
T1 construct: whole, on cells
T1 sequence (looked up): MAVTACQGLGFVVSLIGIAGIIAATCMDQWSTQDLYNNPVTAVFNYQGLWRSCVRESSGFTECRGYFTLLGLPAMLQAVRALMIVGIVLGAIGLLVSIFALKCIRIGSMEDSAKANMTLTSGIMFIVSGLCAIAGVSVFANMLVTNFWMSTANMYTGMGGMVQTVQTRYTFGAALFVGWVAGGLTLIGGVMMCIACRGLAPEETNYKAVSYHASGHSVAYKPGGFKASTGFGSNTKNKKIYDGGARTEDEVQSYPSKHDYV

B1: h15F9.v25 (antibody, V domains shown)
VH: QIQLVQSGSELKKPGASVKVSCKASGYTFTNYGINWVRQAPGQGLEWMGWINPNTGETTYAEGFTGRFVLSWDTSVSTAYLQISSLKAEDTAVYFCARLYYGNRFDSWGQGTLVTVSS
VL: DIVMTQSPDSLAVSLGERATINCKSSQSLLNSGNQRNYLAWYQQKPGQPPKLLIYWASTRESGVPDRFSGSGSGTDFTLTISSLQAEDVAVYYCQQAYYYPLTFGGGTKVEIK
notes: Humanized; also called 15F9VLv2 + 15F9VHv5
B2: 18D10.V13 (antibody, V domains shown)
VH: QVQLQESGPGLVKPSETLSLTCTVSGGSISSNYAWNWIRQPPGKGLEWIGYINYSGNTNYNPSLKSRVTISRDTSKNQFSLKLSSVTAADTAVYYCATSYYGNSFIYWGQGTLVTVSS
VL: B1 VL with R36K, A40T, Q96N, Y99S, Y100F, L102W, G106Q
notes: Humanized; also called 18D10VLv1 + 18D10VHv3
B3: h18A9.v12 (antibody, V domains shown)
VH: QVQLVQSGAEVKKPGSSVKVSCKPSGYTFTNYLIDWVRQAPGQGLEWMGGINPGSGDTVYNEKFQGRVTLTADESTSTAYMELSSLRSEDTAVYFCARRVRGNSFDSWGQGTLVTVSS
VL: B1 VL with R36K, A40T, T75K, Q96N, A97N, Y99F
notes: Humanized; also called 18A9VLv1 + 18A9VHv2
B4: h15F9.v15r1 (antibody, V domains shown)
VH: B1 VH with I2V, G63E, T65K, L70F, W72L
VL: B1 VL with A40T, Q96N
notes: Humanized; also called 15F9VLv1 + 15F9VHv5r1
B5: h15F9.v16 (antibody, V domains shown)
VH: B1 VH with N54G
VL: B1 VL with A40T, Q96N
notes: Humanized; also called 15F9VLv1 + 15F9VHv6
B6: h15F9.v25r2 (antibody, V domains shown)
VH: B1 VH with Q1E, I2V, N54Y, G63E, T65K, L70F, W72L
VL: B1 VL
notes: Humanized; also called 15F9VLv2 + 15F9VHv5r2
B7: 18D10.V15 (antibody, V domains shown)
VH: B2 VH with N59A
VL: B1 VL with R36K, A40T, Q96N, Y99S, Y100F, L102W, G106Q
notes: Humanized; also called 18D10VLv1 + 18D10VHv5
B8: h15F9.v26 (antibody, V domains shown)
VH: B1 VH with N54G
VL: B1 VL
notes: Humanized; also called 15F9VLv2 + 15F9VHv6
B9: h15F9.v36 (antibody, V domains shown)
VH: B1 VH with N54G
VL: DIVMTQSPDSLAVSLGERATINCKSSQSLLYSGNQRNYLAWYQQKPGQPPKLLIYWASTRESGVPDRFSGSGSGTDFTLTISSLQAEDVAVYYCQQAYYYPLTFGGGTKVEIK
notes: Humanized; also called 15F9VLv3 + 15F9VHv6
B10: h18A9.v23 (antibody, V domains shown)
VH: B3 VH with E74K, T76S, S77M, F95Y
VL: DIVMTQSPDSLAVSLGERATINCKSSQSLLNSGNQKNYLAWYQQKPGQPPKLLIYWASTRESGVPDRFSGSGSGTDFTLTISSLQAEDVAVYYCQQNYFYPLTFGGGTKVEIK
notes: Humanized; also called 18A9VLv2 + 18A9VHv3
B11: h18A9.v27 (antibody, V domains shown)
VH: B3 VH with S16A, E74T, A79V
VL: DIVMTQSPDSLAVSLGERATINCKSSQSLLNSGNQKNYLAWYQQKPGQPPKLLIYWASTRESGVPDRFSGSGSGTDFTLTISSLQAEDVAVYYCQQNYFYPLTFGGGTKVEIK
notes: Humanized; also called 18A9VLv2 + 18A9VHv7
B12: h15F9.v25r1 (antibody, V domains shown)
VH: B1 VH with I2V, G63E, T65K, L70F, W72L
VL: B1 VL
notes: Humanized; also called 15F9VLv2 + 15F9VHv5r1
B13: h18A9.v26 (antibody, V domains shown)
VH: B3 VH with S16A, T28A, E74K, T76S
VL: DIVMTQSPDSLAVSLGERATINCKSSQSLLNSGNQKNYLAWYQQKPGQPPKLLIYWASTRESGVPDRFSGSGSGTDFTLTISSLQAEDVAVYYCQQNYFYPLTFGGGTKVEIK
notes: Humanized; also called 18A9VLv2 + 18A9VHv6
B14: 18D10.V22 (antibody, V domains shown)
VH: B2 VH with I49M, V68I
VL: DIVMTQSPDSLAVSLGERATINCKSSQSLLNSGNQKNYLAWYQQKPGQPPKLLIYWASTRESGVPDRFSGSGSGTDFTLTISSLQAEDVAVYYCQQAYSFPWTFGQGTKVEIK
notes: Humanized; also called 18D10VLv2 + 18D10VHv2
B15: h18A9.v25 (antibody, V domains shown)
VH: B3 VH with L70I
VL: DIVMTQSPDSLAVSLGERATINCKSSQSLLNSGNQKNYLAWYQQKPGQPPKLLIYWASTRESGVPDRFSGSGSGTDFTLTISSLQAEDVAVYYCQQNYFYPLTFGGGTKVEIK
notes: Humanized; also called 18A9VLv2 + 18A9VHv5
B16: h18A9.v15 (antibody, V domains shown)
VH: B3 VH with L70I
VL: B1 VL with R36K, A40T, T75K, Q96N, A97N, Y99F
notes: Humanized; also called 18A9VLv1 + 18A9VHv5
B17: h15F9.v15r2 (antibody, V domains shown)
VH: B1 VH with Q1E, I2V, N54Y, G63E, T65K, L70F, W72L
VL: B1 VL with A40T, Q96N
notes: Humanized; also called 15F9VLv1 + 15F9VHv5r2
B18: h18A9.v17 (antibody, V domains shown)
VH: B3 VH with S16A, E74T, A79V
VL: B1 VL with R36K, A40T, T75K, Q96N, A97N, Y99F
notes: Humanized; also called 18A9VLv1 + 18A9VHv7
B19: 18D10.V21 (antibody, V domains shown)
VH: B2 VH with G27Y, S30T
VL: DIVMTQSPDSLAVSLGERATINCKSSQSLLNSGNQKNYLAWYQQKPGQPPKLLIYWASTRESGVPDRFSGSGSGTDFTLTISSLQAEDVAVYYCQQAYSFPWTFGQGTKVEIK
notes: Humanized; also called 18D10VLv2 + 18D10VHv1
B20: h18A9.v22 (antibody, V domains shown)
VH: B3 VH
VL: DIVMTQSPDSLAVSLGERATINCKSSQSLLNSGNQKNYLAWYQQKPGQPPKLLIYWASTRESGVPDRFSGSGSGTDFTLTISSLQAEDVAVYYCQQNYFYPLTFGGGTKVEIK
notes: Humanized; also called 18A9VLv2 + 18A9VHv2
B21: h18A9.v21 (antibody, V domains shown)
VH: B3 VH with T28A, E74K, T76S, S77M
VL: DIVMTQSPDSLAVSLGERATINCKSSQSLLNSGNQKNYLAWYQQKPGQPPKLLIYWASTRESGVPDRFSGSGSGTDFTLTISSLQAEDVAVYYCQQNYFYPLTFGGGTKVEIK
notes: Humanized; also called 18A9VLv2 + 18A9VHv1
B22: h18A9.v16 (antibody, V domains shown)
VH: B3 VH with S16A, T28A, E74K, T76S
VL: B1 VL with R36K, A40T, T75K, Q96N, A97N, Y99F
notes: Humanized; also called 18A9VLv1 + 18A9VHv6
B23: h18A9.v14 (antibody, V domains shown)
VH: B3 VH with P24A, E74K, T76S, S77M
VL: B1 VL with R36K, A40T, T75K, Q96N, A97N, Y99F
notes: Humanized; also called 18A9VLv1 + 18A9VHv4
B24: h15F9.v35r1 (antibody, V domains shown)
VH: B1 VH with I2V, G63E, T65K, L70F, W72L
VL: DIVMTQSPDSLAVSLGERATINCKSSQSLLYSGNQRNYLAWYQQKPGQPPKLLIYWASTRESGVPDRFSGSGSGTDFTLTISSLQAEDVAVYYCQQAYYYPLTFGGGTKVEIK
notes: Humanized; also called 15F9VLv3 + 15F9VHv5r1
B25: 18D10.V16 (antibody, V domains shown)
VH: B2 VH with N53Y
VL: B1 VL with R36K, A40T, Q96N, Y99S, Y100F, L102W, G106Q
notes: Humanized; also called 18D10VLv1 + 18D10VHv6
B26: 18D10.V25 (antibody, V domains shown)
VH: B2 VH with N59A
VL: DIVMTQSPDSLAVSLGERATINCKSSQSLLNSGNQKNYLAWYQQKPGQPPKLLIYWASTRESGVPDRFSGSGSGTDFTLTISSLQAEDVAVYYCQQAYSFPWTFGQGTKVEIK
notes: Humanized; also called 18D10VLv2 + 18D10VHv5
B27: 18D10.V24 (antibody, V domains shown)
VH: B2 VH with N57Y
VL: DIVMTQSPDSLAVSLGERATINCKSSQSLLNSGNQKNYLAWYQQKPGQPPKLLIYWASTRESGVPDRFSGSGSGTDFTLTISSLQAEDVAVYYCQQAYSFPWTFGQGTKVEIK
notes: Humanized; also called 18D10VLv2 + 18D10VHv4
B28: 18D10.V23 (antibody, V domains shown)
VH: B2 VH
VL: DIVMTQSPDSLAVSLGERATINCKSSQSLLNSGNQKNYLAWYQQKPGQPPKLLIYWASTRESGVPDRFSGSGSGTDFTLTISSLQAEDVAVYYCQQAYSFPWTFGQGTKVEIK
notes: Humanized; also called 18D10VLv2 + 18D10VHv3
B29: h18A9.v13 (antibody, V domains shown)
VH: B3 VH with E74K, T76S, S77M, F95Y
VL: B1 VL with R36K, A40T, T75K, Q96N, A97N, Y99F
notes: Humanized; also called 18A9VLv1 + 18A9VHv3
B30: h15F9.v35 (antibody, V domains shown)
VH: B1 VH
VL: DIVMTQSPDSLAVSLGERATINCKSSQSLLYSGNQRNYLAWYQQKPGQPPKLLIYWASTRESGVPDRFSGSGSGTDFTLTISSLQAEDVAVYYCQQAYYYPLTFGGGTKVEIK
notes: Humanized; also called 15F9VLv3 + 15F9VHv5
B31: h18A9.v11 (antibody, V domains shown)
VH: B3 VH with T28A, E74K, T76S, S77M
VL: B1 VL with R36K, A40T, T75K, Q96N, A97N, Y99F
notes: Humanized; also called 18A9VLv1 + 18A9VHv1
B32: 18D10.V11 (antibody, V domains shown)
VH: B2 VH with G27Y, S30T
VL: B1 VL with R36K, A40T, Q96N, Y99S, Y100F, L102W, G106Q
notes: Humanized; also called 18D10VLv1 + 18D10VHv1
B33: h15F9.v15 (antibody, V domains shown)
VH: B1 VH
VL: B1 VL with A40T, Q96N
notes: Humanized; also called 15F9VLv1 + 15F9VHv5
B34: 18D10.V12 (antibody, V domains shown)
VH: B2 VH with I49M, V68I
VL: B1 VL with R36K, A40T, Q96N, Y99S, Y100F, L102W, G106Q
notes: Humanized; also called 18D10VLv1 + 18D10VHv2
B35: h18A9.v24 (antibody, V domains shown)
VH: B3 VH with P24A, E74K, T76S, S77M
VL: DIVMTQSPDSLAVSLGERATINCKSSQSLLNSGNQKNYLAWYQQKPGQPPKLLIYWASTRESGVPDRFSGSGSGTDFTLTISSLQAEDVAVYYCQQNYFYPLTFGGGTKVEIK
notes: Humanized; also called 18A9VLv2 + 18A9VHv4
B36: 18D10.V14 (antibody, V domains shown)
VH: B2 VH with N57Y
VL: B1 VL with R36K, A40T, Q96N, Y99S, Y100F, L102W, G106Q
notes: Humanized; also called 18D10VLv1 + 18D10VHv4
B37: 18D10.V26 (antibody, V domains shown)
VH: B2 VH with N53Y
VL: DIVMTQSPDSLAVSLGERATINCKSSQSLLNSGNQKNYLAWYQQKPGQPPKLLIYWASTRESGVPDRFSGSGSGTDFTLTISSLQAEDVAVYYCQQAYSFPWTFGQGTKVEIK
notes: Humanized; also called 18D10VLv2 + 18D10VHv6
B38: h15F9.v35r2 (antibody, V domains shown)
VH: B1 VH with Q1E, I2V, N54Y, G63E, T65K, L70F, W72L
VL: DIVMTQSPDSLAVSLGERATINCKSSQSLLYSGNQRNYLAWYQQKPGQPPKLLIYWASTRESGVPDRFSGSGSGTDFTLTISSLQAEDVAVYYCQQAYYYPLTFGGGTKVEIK
notes: Humanized; also called 15F9VLv3 + 15F9VHv5r2

target: T1, human Claudin 18.2; test: flow cytometry (iQue) on cells, antibody from 100 nM in 5-fold steps; cell line not named in Example 5
Description: The cells at logarithmic growth phase were taken, blocked with 3% BSA for 30 minutes, plated at 5×10⁴ cells/100 μL into a U-shaped 96-well plate, centrifuged at 1100 rpm for 3 minutes, the supernatant was discarded, the cells were gently patted and loosed, 50 μL of antibody diluted according to the series was added to each well (antibody concentration starts from 100 nM, 5 times dilution in 8 series), incubated at 4° C. for 1 hour. After the incubation, 140 μL of 0.5% BSA was added to each well to wash 3 times, AF 647 APC anti-human secondary antibody was added with 30 μL/well and incubated at 4° C. for 40 minutes. After the incubation, 140 μL of 0.5% BSA was added to each well to wash 3 times, and finally resuspended each well with 50 μL PBS for iQue (Intellicyt, USA) detection (shown in Table 2).

Binder | EC50 [nM]
B1 | 0.773
B2 | 0.912
B3 | 0.913
B4 | 2.53
B5 | 0.705
B6 | 1.61
B7 | 2.69
B8 | 1.02
B9 | 0.786
B10 | 1.17
B11 | 0.646
B12 | 1.72
B13 | 1.41
B14 | 1.9
B15 | 0.964
B16 | 1.41
B17 | 1.65
B18 | 1.43
B19 | 1.07

Binder | EC50 [nM]
B20 | 0.822
B21 | 1.03
B22 | 0.799
B23 | 0.548
B24 | 1.2
B25 | 2.31
B26 | 1.26
B27 | 1.93
B28 | 0.982
B29 | 0.761
B30 | 0.951
B31 | 0.645
B32 | 1.13
B33 | 1.67
B34 | 1.68
B35 | 2.06
B36 | 1.74
B37 | 1.87
B38 | 0.879
